# Test results taken from publication PMC9959916, “A Highly Conserved Region in BRCA2 Suppresses the RAD51-Interaction Activity of BRC Repeats” (Veterinary Sciences, 2023).
# T1: Gal4 DNA-binding domain-fused cBRC1-HCR-BRC2 A1108G (canine (Canis lupus familiaris), UniProt Q8MKI9 993-1248, A1108G)
# T1 construct: canine BRCA2, residues 993-1248 with A1108G, a mutation reported in a canine mammary tumor; source: HeLa, transiently transfected, mammalian two-hybrid fusion
# T1 sequence (looked up): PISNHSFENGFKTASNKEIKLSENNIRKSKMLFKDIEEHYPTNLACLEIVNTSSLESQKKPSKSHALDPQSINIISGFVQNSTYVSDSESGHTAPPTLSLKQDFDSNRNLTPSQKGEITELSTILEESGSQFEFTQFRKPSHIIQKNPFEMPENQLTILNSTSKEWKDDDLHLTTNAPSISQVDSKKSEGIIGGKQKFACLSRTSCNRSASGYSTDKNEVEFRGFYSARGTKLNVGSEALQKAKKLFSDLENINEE
# T2: FLAG-HA-NLS-fused cBRC1-HCR-BRC2 A1108G (canine (Canis lupus familiaris), UniProt Q8MKI9 993-1248, A1108G)
# T2 construct: canine BRCA2, residues 993-1248 with A1108G, a mutation reported in a canine mammary tumor; Very low expression; also called A1108G mutant; source: HeLa, stably expressing, in lysate
# T2 sequence (looked up): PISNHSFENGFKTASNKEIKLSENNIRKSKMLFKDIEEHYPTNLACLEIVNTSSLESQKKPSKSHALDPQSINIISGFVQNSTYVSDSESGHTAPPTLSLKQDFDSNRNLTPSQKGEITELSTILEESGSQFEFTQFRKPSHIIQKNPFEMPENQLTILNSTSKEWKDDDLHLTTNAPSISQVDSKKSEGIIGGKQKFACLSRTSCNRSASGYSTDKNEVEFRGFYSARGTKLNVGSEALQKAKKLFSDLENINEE
# B1: VP16-fused canine RAD51 (natural protein, UniProt Q8MKI8 1-339, looked up)
# chain: MAMQMQLEANADTSVEEESFGPQPISRLEQCGINANDVKKLEEAGFHTVEAVAYAPKKELISIKGISEAKADKILTEAAKLVPMGFTTATEFHQRRSEIIQITTGSKELDKLLQGGIETGSITEMFGEFRTGKTQICHTLAVTCQLPIDRGGGEGKAMYIDTEGTFRPERLLAVAERYGLSGSDVLDNVAYARGFNTDHQTQLLYQASAMMVESRYALLIVDSATALYRTDYSGRGELSARQMHLARFLRMLLRLADEFGVAVVITNQVVAQVDGAAMFAADPKKPIGGNIIAHASTTRLYLRKGRGETRICKIYDSPCLPEAEAMFAINADGVGDAKD
# notes: canine RAD51, cloned into the pVP16 vector; also called pVP16-RAD51; source: HeLa, transiently transfected, mammalian two-hybrid fusion
# B2: endogenous RAD51 (HeLa cells) (natural protein, human (endogenous in HeLa), UniProt Q06609 1-339, looked up)
# chain: MAMQMQLEANADTSVEEESFGPQPISRLEQCGINANDVKKLEEAGFHTVEAVAYAPKKELINIKGISEAKADKILAEAAKLVPMGFTTATEFHQRRSEIIQITTGSKELDKLLQGGIETGSITEMFGEFRTGKTQICHTLAVTCQLPIDRGGGEGKAMYIDTEGTFRPERLLAVAERYGLSGSDVLDNVAYARAFNTDHQTQLLYQASAMMVESRYALLIVDSATALYRTDYSGRGELSARQMHLARFLRMLLRLADEFGVAVVITNQVVAQVDGAAMFAADPKKPIGGNIIAHASTTRLYLRKGRGETRICKIYDSPCLPEAEAMFAINADGVGDAKD
# notes: RAD51 recombinase, endogenous in HeLa cells; source: endogenous, HeLa lysate
# B3: FLAG-HA-NLS-fused cBRC1-ΔHCR-BRC2 (canine BRCA2 993–1248 aa deleted with 1101–1133 aa) (domain or fragment, canine (Canis lupus familiaris), UniProt Q8MKI9 993-1248, looked up)
# chain: PISNHSFENGFKTASNKEIKLSENNIRKSKMLFKDIEEHYPTNLACLEIVNTSSLESQKKPSKSHALDPQSINIISGFVQNSTYVSDSESGHTAPPTLSLKQDFDSNRHIIQKNPFEMPENQLTILNSTSKEWKDDDLHLTTNAPSISQVDSKKSEGIIGGKQKFACLSRTSCNRSASGYSTDKNEVEFRGFYSARGTKLNVGSEALQKAKKLFSDLENINEE
# notes: canine BRCA2, residues 993-1248 with the HCR (1101-1133) deleted; also called HCR-deleted peptide; source: HeLa, stably expressing, in lysate
# Assays:
# Details in all cases: partners not purified
# [1] = target: T1, Gal4 DNA-binding domain-fused …; assay: two-hybrid; mammalian two-hybrid in HeLa cells: pM (Gal4 DNA-binding domain)-BRCA2 peptide, pVP16-canine RAD51, pG5-Luc firefly luciferase reporter, normalised to Renilla (pRL-TK); read two days after transfection
# [2] = target: T2, FLAG-HA-NLS-fused cBRC1-HCR-BRC2 A1108G; assay: co-IP; lysates of HeLa cells stably expressing FLAG-HA-NLS-fused canine BRCA2 peptides, Benzonase-treated; FLAG M2 affinity agarose at 4 °C overnight; washed with 20 mM Tris-HCl pH 8.0, 150 mM KCl, 2 mM MgCl2, 10% glycerol; blots for endogenous RAD51 and PP2A-C subunit
# [3] = target: B2; assay: co-IP; lysates of HeLa cells stably expressing FLAG-HA-NLS-fused canine BRCA2 peptides; 3 μg anti-RAD51 at 4 °C overnight, Protein G Dynabeads; peptides detected with anti-FLAG
binder,measurement,setting,value
B1,fold change against the wild-type peptide,[1],1.5 fold
B2,fold change against the wild-type peptide,[2],48 fold
B3,fold change against cBRC1-HCR-BRC2,[3],~1.5 fold
